Assay results as given in patent US12215323B2, “Exogenous control of mammalian gene expression through aptamer-mediated modulation of polyadenylation” (Baylor College of Medicine, priority 2015, dated 2025).

B1: GP2SLGP2: two GP2 aptamers connected back to back (Helper and Center); SEQ ID NO: 59 (nucleic acid)
chain: GCTAGCCACACACACAAATCTGGGGAGGTGAAGAATACGACCACCTGCGTTTTATACTTTGTTAAAACATACCAGATCGAAAGATCTGGGGAGGTGAAGAATACGACCACCTAATAAAGTATAAAGTGCAAAACATACCAGATCTGTGTGTTGGTTTTTTGTGTGGAATTCCACACACACAAATCTGGGGAGGTGAAGAATACGACCACCTGCGTTTTATACTTTGTTAAAACATACCAGATCGAAAGATCTGGGGAGGTGAAGAATACGACCACCTAATAAAGTATAAAGTGCAAAACATACCAGATCTGTGTGTTGGTTTTTTGTGTGAACGGGGGAGGGGGAGGAAAGGGGGAGGGGGAGCGGCCGC
modifications: Synthetic Primerr
B2: D11A: GP2SLGP2 variant in stem/loop-II region; SEQ ID NO: 61 (nucleic acid)
chain: GCTAGCGAATTGCACACACACAAATCTGGGGAGGTGAAGAATACGACCACCTGCGTTTTATACTTTGTTAAAACATACCATCCTAAGCCTAAGGCAAACGCTATGGTATGGATGGGGAGGTGAAGAATACGACCACCTAATAAAGTATAAAGTGCAAAACATACCAGATCTGTGTGTTGGTTTTTTGTGTGGAATTCCACACACACAAATCTGGGGAGGTGAAGAATACGACCACCTGCGTTTTATACTTTGTTAAAACATACCAGATCGAAAGATCTGGGGAGGTGAAGAATACGACCACCTAATAAAGTATAAAGTGCAAAACATACCAGATCTGTGTGTTGGTTTTTTGTGTGAACGGGGGAGGGGGAGGAAAGGGGGAGGGGGAGCGGCCGC
modifications: Synthetic Primer
B3: C12: GP2SLGP2 variant in stem/loop-II region, central stem equivalent length 20 bp; SEQ ID NO: 60 (nucleic acid)
chain: CTGCAGCACACACACAAATCTGGGGAGGTGAAGAATACGACCACCTGCGTTTTATACTTTGTTAAAACATACCAGATCGAATTCGATCTGGGGAGGTGAAGAATACGACCACCTAATAAAGTATAAAGTGCAAAACATACCAGATCTGTGTGTTGGTTTTTTGTGTGGCTAGCCACACACACAAATCTGGGGAGGTGAAGAATACGACCACCTGCGTTTTATACTTTGTTAAAACATACCAGATCGAATTCGATCTGGGGAGGTGAAGAATACGACCACCTAATAAAGTATAAAGTGCAAAACATACCAGATCTGTGTGTTGGTTTTTTGTGTGAACGGGGGAGGGGGAGGAAAGGGGGAGGGGGAGCGGCCGC
modifications: Synthetic Primer

What was measured:
hammerhead ribozyme = details: retina of nude mice, toyocamycin drug pellet under dorsal skin, ribozyme-based sensor; cited from earlier work
[1] = tested on: luciferase reporter gene expression; experiment: Luciferase reporter assay of tetracycline-aptamer polyA switch constructs with and without tc; format: cell-based, human
Description: The general strategy for detecting and imaging proteins via modulation of polyA cleavage is critically dependent upon the highly efficient cleavage of the polyA signal at the 5′ UTR (FIG. 1). A first step was to test candidate polyA signals and associated upstream and downstream motifs that enable efficient polyA cleavage in cells. For testing polyA cleavage efficiency, a transient transfection assay involving a mammalian expression vector^49 was used with a GFP or luciferase reporter (merely as examples). Candidate polyA signal sequences were cloned at the 5′UTR of the reporter gene or transgene within the expression vector.

Molecule	induced luciferase reporter expression (hammerhead ribozyme)	induction (fold), ratio of luciferase activity with and without Tc ([1]; 5 μg/mL Tc) [fold]	induction (fold), ratio of luciferase activity with and without Tc ([1]; 15 μg/mL Tc) [fold]
N#Cc1cn([C@@H]2O[C@H](CO)[C@@H](O)[C@H]2O)c2ncnc(N)c12 [toyocamycin]	up to 180 fold	–	–
B1	–	70	104
B2	–	84	127
B3	–	94	151
